Assay [1] has as its target T1, hBCMA ECD hFc (ACRO, BC7-H5254) (human, UniProt Q02223 1-54).
T1 construct: extracellular domain; Bought reagent (ACRO BC7-H5254); also called R0341; not shown: human Fc
T1 sequence (looked up): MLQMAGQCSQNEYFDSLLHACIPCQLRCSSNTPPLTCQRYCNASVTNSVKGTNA
The assay can be described thus: ELISA; hBCMA ECD hFc coated at 2 µg/ml, antibody in 3-fold dilutions. The source says:
R0317 is a C11D5.3BCMA mouse monoclonal antibody, and its specific sequence and information may be found publicly.

Assay [2] deals with T2, human BCMA (full-length, on cells) (human, UniProt Q02223 1-184).
T2 construct: whole, on cells; also called K562-BCMA; CHO-BCMA
T2 sequence (looked up): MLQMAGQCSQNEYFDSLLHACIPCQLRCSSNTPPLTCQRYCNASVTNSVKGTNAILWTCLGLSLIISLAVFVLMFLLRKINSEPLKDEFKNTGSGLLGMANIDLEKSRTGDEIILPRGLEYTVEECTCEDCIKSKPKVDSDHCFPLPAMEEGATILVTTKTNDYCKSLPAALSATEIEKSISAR
The assay can be described thus: flow cytometry on RPMI8226 and H929 myeloma cells; antibody from 10 µg/ml in 3-fold dilutions, PE anti-mouse IgG. As for the experimental part: A RPMI8226 cell (ATCC® CRM-CCL-155™) is a human multiple myeloma peripheral blood B lymphocyte, and a H929 cell (ATCC® CRL-9068™) is a human multiple myeloma bone marrow B lymphocyte. A specific detection method is as follows: cells are harvested, washed with PBS once, and then resuspend with PBS according to 2E+5 cells/200 μl. The three antibodies are diluted in a gradient (the initial concentration of the antibody is 10 μg/ml, it is diluted with 1% BSA in 3-fold, and there is a total of 9 gradients), and then incubated with the cells for 30 min at 4° C. After that, it is incubated with a PE-labeled anti-mouse IgG secondary antibody (Biolegend, B288920), washed twice, and detected by a Beckman Coulter (model number: CytoFLEX) flow cytometry.

Assay [3] addresses T3, hu (human) BCMA ECD His (ACRO, BCA-H522y) (human, UniProt Q02223 1-54).
T3 construct: extracellular domain; Bought reagent (ACRO BCA-H522y); also called hu BCMA ECD His; not shown: His tag
T3 sequence (looked up): T1 sequence (looked up)
The assay can be described thus: ELISA; hu BCMA ECD His coated at 2 µg/mL, antibody in 3-fold dilutions.

Assay [4] deals with T2, human BCMA (full-length, on cells). The assay can be described thus: flow cytometry on K562, H929, RPMI8226 and K562-BCMA cells; PE goat anti-mouse IgG1. The source says: The specificity of BCMA antibody of the present disclosure is detected by FACs. A human BCMA full-length gene is synthesized in vitro, and a restriction enzyme cutting site is introduced, the synthesized human BCMA full-length gene is inserted into a lentiviral packaging plasmid vector (PCDHF) by double enzyme digestion, and lentiviral packaging (the specific operation steps are generally 4 plasmid lentiviral packaging steps, please refer to a section about lentiviral packaging on an official website of Jikai Gene in detail) is performed. The prepared lentivirus is infected with a K562 cell (ATCC, article number: CCL-243) to construct a K562-BCMA cell, and the cells are single-clone-picked and identified, to obtain a stable cell line K562-BCMA stably expressing BCMA. The 5E2 and 5F4 antibodies are respectively incubated with K562, H929, RPMI8226 and K562-BCMA cells for 30 min at 4° C., after that, it is washed twice with PBS, then a secondary antibody PE goat anti-mouse IgG1 (Biolegend, B288920) is added, and incubated at 4° C. for 30 min, after that, it is washed twice with PBS. Then, the detection is performed by using a Beckman Coulter flow cytometry. Detection results are shown in FIG. 5 below, and 5E2 and 5F4 may specifically bind to the cells of which the BCMA expression is positive.

Assay [5] concerns the target T3, hu (human) BCMA ECD His (ACRO, …). The assay can be described thus: ELISA; hu BCMA ECD His coated at 2 µg/mL, antibody from 20 µg/mL in 3-fold dilutions. The source says:
Herein, mVH-mVL is a murine BCMA antibody, and is a murine antibody before humanization.

Assay [6] deals with T2, human BCMA (full-length, on cells). As to the kind of experiment: flow cytometry on K562-BCMA and CHO-BCMA cells; antibody from 30 µg/ml in 3-fold dilutions, APC anti-human IgG Fc. The text has this: A K562 cell (ATCC® CCL-243™) is a human chronic myeloid leukemia cell, and a CHO cell (ATCC® CRL-12023™) is a Chinese hamster ovary cell. The K562 cells and the CHO cells are respectively infected with lentiviruses containing a full-length sequence of human BCMA, and after being infected, a monoclone is picked, to obtain a K562-BCMA cell line and a CHO-BCMA cell line stably expressing BCMA, and the affinity (EC50) of the four humanized antibodies to K562-BCMA and CHO-BCMA is detected respectively. A specific detection method is as follows: cells are harvested, washed once with PBS, and resuspended with PBS according to 2E+5 cells/200 μL. The four BCMA humanized antibodies are diluted in a 3-fold gradient with 1% BSA, the concentration of the former gradient antibody is 3 times greater than that of the latter gradient antibody, (the initial concentration of the antibody is 30 μg/ml, and there is a total of 11 gradients), and then it is respectively incubated with the cells at 4° C. for 30 min. After that, it is incubated with APC anti-human IgG Fc Antibody (Biolegend, 409306) for 30 min at 4° C., washed twice with 1x PBS, and detected by a Beckman Coulter (model number: CytoFLEX) flow cytometry. […] The affinity EC₅₀ of hu VH1VL2 to K562-BCMA is slightly weaker. However, the affinity EC₅₀ of hu VH1-VL2 and CHO-BCMA is at the same level as the other three humanized antibodies, and the expression abundance of the four humanized antibodies and the murine BCMA antibody binding to CHO-BCMA is in the order of m VH-m VL, hu VH1-VL1, hu VH2-VL1, hu VH1-VL2, and hu VH1-VL3 from high to low.

Changes are numbered by the printed parent chain.

B1: R0317 (C11D5.3 BCMA mouse monoclonal antibody) (antibody, V domains shown)
VH: QIQLVQSGPELKKPGETVKISCKASGYTFTDYSINWVKRAPGKGLKWMGWINTETREPAYAYDFRGRFAFSLETSASTAYLQINNLKYEDTATYFCALDYSYAMDYWGQGTSVTVSS
VL: DIVLTQSPASLAMSLGKRATISCRASESVSVIGAHLIHWYQQKPGQPPKLLIYLASNLETGVPARFSGSGSGTDFTLTIDPVEEDDVAIYSCLQSRIFPRTFGGGTKLEIK
B1: the binding result in assay [1] and in assay [2] was “binds” each time.

B2: 5E2 (antibody, V domains shown)
VH: EVQLQQSGPELIKPGASVKMSCKASGYTFTSYVVHWVKQKPGQGLEWIGYIIPYNDDTKYNEKFKGKATLTSDKSSSTAYMELSSLTSEDSAVYYCARWDYDDGYFDYWGQGTTLTVSS
VL: DVVMTQTPLSLPVTLGDQASISCRSSQSLLHSNGNTYLHWYLQKPGQSPKLLIYKVSNRFSGVPDRFSGSGSGTDFTLKISRVEAEDLGVYFCSQITHIPFTFGSGTKLEIKR
notes: Mouse hybridoma antibody; It was amplified with primers for mouse IgG1 and detected with anti-mouse IgG in Embodiment 2; In Embodiment 5 it is called mVH-mVL ('a murine antibody before humanization'); also called BCMA antibody 5E2; mVH-mVL
Turning to B2, the binding result in assay [1], in assay [3] and in assay [4] was “binds” throughout.

B3: hu VH1-VL3 (antibody, V domains shown)
VH: B2 VH with E1Q, Q5V, P9A, L11V, I12K, K38R, K40A, T87R, S91T, L115V
VL: DIVMTQTPLSLSVTPGQPASISCKSSQSLLHSNGNTYLHWYLQKPGQPPQLLIYKVSNRFSGVPDRFSGSGSGTDFTLKISRVEAEDVGVYYCSQITHIPFTFGQGTKLEIKR
notes: Humanized 5E2; also called humanized BCMA antibody hu VH1-VL3
For the molecule B3, the binding result in assay [5] and in assay [6] was “binds” each time.

B4: hu VH1-VL1 (antibody, V domains shown)
VH: B2 VH with E1Q, Q5V, P9A, L11V, I12K, K38R, K40A, T87R, S91T, L115V
VL: DVVMTQSPLSLPVTLGQPASISCRSSQSLLHSNGNTYLHWYLQKPGQSPQLLIYKVSNRFSGVPDRFSGSGSGTDFTLKISRVEAEDVGVYFCSQITHIPFTFGQGTKLEIK
notes: Humanized 5E2; also called humanized BCMA antibody hu VH1-VL1
Turning to B4, the binding result in assay [5] and in assay [6] was “binds” each time.

B5: hu VH2-VL1 (antibody, V domains shown)
VH: QVQLVQSGAEVKKPGASVKMSCKASGYTFTSYVVHWVRQAPGQGLEWIGYIIPYNDDTKYNEKFKGRVTLTSDKSTSTAYMELSSLRSEDTAVYYCARWDYDDGYFDYWGQGTTVTVSS
VL: B4 VL
notes: Humanized 5E2; also called humanized BCMA antibody hu VH2-VL1
For B5, the binding result in assay [5] and in assay [6] was “binds” throughout.

B6: hu VH1-VL2 (antibody, V domains shown)
VH: B5 VH with R67K, V68A, T76S
VL: B4 VL with S7T, P12S, L15P, R24K
notes: Humanized 5E2; also called humanized BCMA antibody hu VH1-VL2
Consider B6, for which the binding result in assay [5] and in assay [6] was “binds” in each case.

For the origin of these results see US20230039487A1 (SHENZHEN FEIPENG BIOLOGICAL THERAPY, published 2023).
